In patent US20100111986A1 (Memorial Sloan Kettering, published 2010):

Biological target: T1, HLA-A0201 (human)
T1 construct: MHC class I molecule on T2 cells; also called HLA-A2.1; HLA 0201
Test: T2 cell HLA stabilization assay, flow cytometry
Method: T2 cells (TAP″, HLA-A0201⁺) were incubated overnight at 27° C. at a concentration of 1×10⁶ cells/ml in FCS-free RPMI medium supplemented with 5 μg/ml human β₂m (Sigma, St Louis, Mo.) in the absence (negative control) or presence of either a positive reference tyrosinase peptide or test peptides at various final concentrations (50, 10, 1, and 0.1 micrograms (μg)/ml). Following a 4-hour incubation with 5 μg/ml brefeldin A (Sigma), T2 cells were labeled for 30 minutes at 4° C. with a saturating concentration of anti-HLA-A2.1 (BB7.2) mAb, then washed twice. Cells were then incubated for 30 minutes, 4° C. with a saturating concentration of FITC-conjugated goat IgG F(ab′)2 anti-mouse Ig (Caltag, San Francisco, Calif.), washed twice, fixed in PBS/1% paraformaldehyde and analyzed using a FACS Calibur® cytofluorometer (Becton Dickinson, Immunocytometry Systems, San Jose, Calif.).
The mean intensity of fluorescence (MIF) observed for each peptide concentration (after dividing by the MIF in the absence of peptide) was used as an indication of peptide binding and expressed as a “fluorescence index.” Stabilization assays were performed similarly. Following initial evaluation of peptide binding at time 0, cells were washed in RPMI complete medium to remove free peptides and incubated in the continuous presence of 0.5 μg/ml brefeldin-A for 2, 4, 6 or 8 hours.

| Binder | binding result |
| --- | --- |
| YLLPAVPSL [WT-1 C1 (ANALOGUE)] | binds |
| ALLPAVPSL [WT-1 C (native)] | binds |
| YLGATLKGV [WT-1 D1 (ANALOGUE)] | binds |
| NLGATLKGV [WT-1 D (native)] | binds |
| YLGEQQYSV [WT-1 B1 (ANALOGUE)] | binds |
| SLGEQQYSV [WT-1 B (native)] | binds |
| YMFPNAPYL [WT-1 A1 (ANALOGUE)] | binds |
| RMFPNAPYL [WT-1 A (native)] | binds |

Biological target: T2, HLA-A0301 (human)
T2 construct: MHC class I molecule on Raji HLA-A0301 cells
Test: stabilization assay on Raji HLA-A0301 cells

| Binder | binding result |
| --- | --- |
| NMHQRNMTK [A3 WT-1 A (native)] | binds |
| NMYQRVMTK [A3 WT-1 A3 (ANALOGUE)] | binds |
| NMYQRNMTK [A3 WT-1 A1 (ANALOGUE)] | binds |
| NMHQRVMTK [A3WT-1 A2 (ANALOGUE)] | binds |
| KLSHLQMHSR [A3WT-1 D (native)] | binds |
| KLYHLQMHSK [A3 WT-1 D3 (ANALOGUE)] | binds |
| KLSHLQMHSK [A3 WT-1 D2 (ANALOGUE)] | binds |
| KLYHLQMHSR [A3WT-1 D1 (ANALOGUE)] | binds |
| QMNLGATLK [A3 WT-1 B (native)] | binds |
| QMYLGVTLK [A3WT-1 B3 (ANALOGUE)] | binds |
| QMNLGVTLK [A3WT-1 B2 (ANALOGUE)] | binds |
| QMYLGATLK [A3WT-1 B1 (ANALOGUE)] | binds |
| FMCAYPGCNK [A3WT-1 C (native)] | binds |
| FMYAYPFCNK [A3 WT-1 C3 (ANALOGUE)] | binds |
| FMYAYPGCNK [A3WT-1 C1 (ANALOGUE)] | binds |
| FMCAYPFCNK [A3 WT-1 C2 (ANALOGUE)] | binds |
